These results are taken from patent CN112142841A (JIANGSU QUANXIN BIOMEDICAL CO LTD, dated 2020).

The target in assay [1] is T1, 人IL-17A (His-tag，购自Novoprotein) (human, UniProt Q16552 24-155).
T1 construct: Bought His-tagged protein, detected with an HRP-labelled anti-His antibody; also called human IL-17A; hIL-17A; not shown: His-tag
T1 sequence (looked up): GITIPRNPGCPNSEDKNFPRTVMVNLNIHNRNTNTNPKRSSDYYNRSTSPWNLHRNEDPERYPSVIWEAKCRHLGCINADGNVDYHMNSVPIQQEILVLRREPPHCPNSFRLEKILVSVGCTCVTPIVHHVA
Put plainly: ELISA: antibody coated, serially diluted His-tagged human IL-17A, anti-His-HRP detection. On the technique in general: In an ELISA, binding on a coated surface is turned into a signal by an enzyme label.

Assay [2] addresses T2, 人IL-17A蛋白 (Example 4, sandwich ELISA) (human, UniProt Q16552 24-155).
T2 construct: also called 重组人IL-17A蛋白标准品; recombinant human IL-17A protein standard
T2 sequence (looked up): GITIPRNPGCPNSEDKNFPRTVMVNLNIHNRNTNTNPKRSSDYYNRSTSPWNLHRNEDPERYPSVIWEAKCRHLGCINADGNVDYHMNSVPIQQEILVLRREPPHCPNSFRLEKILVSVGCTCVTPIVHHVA
Put plainly: sandwich ELISA: QX002N coated, human IL-17A 0-10 ng/ml, biotin-labelled second antibody for detection, SA-HRP.

B1: 抗人IL-17A单克隆抗体 (anti-human IL-17A monoclonal antibody) (antibody, V domains shown)
VH: QSLEESGGDLVQPEGSLALTCKASGFDLSSYYYMCWVRQAPGKGLEWIACIHTGNGYPYYANWAKGRFTISKTSSTTVTLQLTSLTVADTATYFCARPVGGYDYAMDLWGPGTLVTVSS
VL: AYDMTQTPASVSAAVGGTVTINCQASEDISSQLSWYQQRPGQPPKLLIYKASTLASGVPSRFRGSGSGTQFTLTISGVQCADAATYYCQQSASYFNVANTFGGGTEVVVKG
notes: also called 第二抗体; 检测抗体
On to B1, for which the binding result in assay [1] and in assay [2] was “binds” in each case.
